Patent US20180334496A1 (KODIAK SCIENCES, published 2018)
Where a chain is given by its changes, count along the chain named.

B1: KCD128 (antibody, V domains shown)
VH: QVQLQQPGAELVRPESSVKLSCKASGYTFTSYWMDWVMQRPGQGLEWIGNIYPSGSETHYNQKFKDKATLTVDKSSTTAYMQLSSLTFEDSAVYYCARSGFIGSRYLYYFDYWGQGTTLTVSS
VL: DIVMTQSHKFMSTSVGDRVTITCKASQDVSNAVAWYQLKPGQSPKLLIYSASYRYTGVPDRFTGSGSGTDFTFTISSVQAADLAVYYCQQHYITPYTFGGGTKLEIK
B2: KCD137 (antibody, V domains shown)
VH: EVQLVESGGDLVKPGGSLKLSCAASGFTFSGYGMSWVRQIPDKRLEWVAISSRDNSFTYYPDSVKGRFTISRDNAKNTLYLQMSSLKSEDTALYFCTRHPYLPTGGYVMDYWGQGTSVTVSS
VL: DIVMTQSHKFMSTSVGDRVSITCKASQDVGTAVAWYQQRPGQSPKLLIYWASTRHTGVPDRFTGSGSGTDFTLTVSNVQSEDLADYFCQQYTSYPLTFGAGTKLELK
B3: KCD017 (antibody, V domains shown)
VH: DVQLQESGPDLVKPSQSLSLTCTVTDYSITSGYSWHWIRQFPGNKLEWLGYIHSSGNTNYNPSLKSRFSITRDTSKNQFFLQLNSVTSEDTATYYCALHYYGSSFGWYFDVWGAGTTVTVSS
VL: B2 VL with S20Y, R39T, P40S, V75L
B4: KCD077 (antibody, V domains shown)
VH: EVQLQQSGAELVRPGALVKLSCKASGFNIKDYYMHWVKQRPEQGLEWIGWIDPENGHTIYDPRFQGKATITADTSSNTAYLQLSSLTSEDTAVYYCSRGLLGFAYWGQGTLVTVSA
VL: DIVMTQSQKFMSTSVGDRVSVTCKASQNVGTNVAWYQQKPGQSPKALIYTASYRYSGVPDRFTGSGSGTDFTLTISNVQSEDLAEYFCQQYNSYPHMYTFGGGTKLEIK
B5: KCD122 (antibody, V domains shown)
VH: EVQLQQSGPELVKPGASVKISCKASGYTFTDYYKNWMRQRHGESLEWIGDINPNNGDANYNQKFKGKATLTVDKSSSTAYMELRSLTSEDSAVYFCAREGPSFAYWGHGTLVTVSA
VL: DVLMTQTPLSLPVSLGDQASISCRSSQTIVHSNGDTYLEWYLQKPGQSPNLLIYKVSNRFSGVPDRFSGSGSGTDFTLKISRVEAEDLGVYYCFQGSHVPPTFGGGTKLEIK
B6: KCD121 (antibody, V domains shown)
VH: B5 VH with A58T, N59S, K65R, Y80F, F95Y, H108Q
VL: B5 VL with S26N, K79R
B7: KCD003 (antibody, V domains shown)
VH: EVQLQQSRPELVKPGASVKIFCKASGYTFTDYYMNWMRQRHGETLEWIGDINPNNGDPSYNQKFKDKATLTVDKSSSTASMELRSLTSDDSAVYYCAREGPSFAYWGQGTLVTVSA
VL: B5 VL with D17E
B8: KCD123 (antibody, V domains shown)
VH: B5 VH with Q3H, Y32F, D57G, A58T, F95Y, H108Q
VL: B5 VL
B9: KCD118 (antibody, V domains shown)
VH: B5 VH with S25F, N55S, F95Y
VL: B5 VL with V90I
B10: KCD214 (antibody, V domains shown)
VH: EVQLQQSVAEFVRPGASVKLSCTASGFNIKNTYMHWVKQRPEQGLEWIGRIDPANGNTEYAPKFQGKATITADTSSNTAYLQLSSLTSEDTAIYYCALYDYDGYWGQGTTLTVSS
VL: EIVLTQSPALMAASPGEKVTITCRVSSSISSSSLHWYQQKSGTSPKPWIYGTSNLASGVPVRFSGSRSGTSYSLTISSMEAEDAATYYCQQWSDYPWTFGGGTKLEIK
B11: KCD220 (antibody, V domains shown)
VH: QVQLQQSGAELMEPGASVKLSCKATGYTFTGYWIEWVKQRPGHGLEWIGETLPGSDSNNYNEKFKGKATFTADTSSNTAYMQLSSLTTEDSAIYYCARDYSNYWYFDVWGTGTTVTVSS
VL: DIQMTQTTSSLSASLGDRVTISCRASQDISNYLNWYQQKPDGTVKLLIYYTSNLHSGVPSRFSGSGSGTDYSLTISNLEQEDIATYFCQQDSKHRTFGGGTKLEIK
B12: KCD102 (antibody, V domains shown)
VH: QVQLQQPGAELVRPGTSVKLSCKASGYTFTSYWMHWVKQRPGQGLEWIGVIDPSDSYTNYNQKFKGKATLTVDTSSSTAYMQLSSLTSEDSAVYYCARNGYDGSMDYWGQGTSVTVSS
VL: EIQMTQTTSSLSASLGDRVTISCRASQDISNYLNWYQQKPDGTVKLLIYYPSRLHSGVPSRFSGSGSGTDYSLTISNLEQEDFATYFCQQGNTLPYTFGGGTKLEIK
B13: KCD104 (antibody, V domains shown)
VH: B12 VH with N59Y, S104A
VL: B12 VL
B14: KCD103 (antibody, V domains shown)
VH: B12 VH with N59K, G66D, D73E, R98G
VL: B12 VL with E1D, Y32S, P51T, G57R, E79D, F83I, G91A
B15: KCD101 (antibody, V domains shown)
VH: B12 VH with A97G
VL: B12 VL with E1D
B16: KCD011 (antibody, V domains shown)
VH: EVKLVESGGGLVQPGGSLKLSCAASGFTFSSNTMSWVRQTPEKRLEWVAYITNGGGSTYYPDTVKGRFTISRDNARNTLYLQMSSLKSEDTAMYYCARHDYYTMDYWGQGTSVTVSS
VL: DIQMTQSPSSLSASLGGKVTITCKASQDINKYIAWYQHKPGKGPRLLIHYTSTLQPGIPSRFSGSGSGRDYSFSISNLEPEDIATYYCLQYDNLLYTFGGGTKLEIK
B17: KCD062 (antibody, V domains shown)
VH: EVKLVESGGGLVQPGGSLKLSCAASGFTFSTYIMSWVRQTPEKRLEWVAYITSGGSSTYYPDTVKGRFTISRDNAKSTLYLQMSSLKSEDTAMYYCARHAHFYAMDYWGQGTSVTVSS
VL: B16 VL
B18: KCD058 (antibody, V domains shown)
VH: EVKLVESGGDLVQPGGSLKLSCAASGFTFSRYIMSWVRLTPEKRLEWVAFITNGGGNTYHPDTVKGRFTISRDNANNTLYLQMSSLKSEDTAIYYCARHDYYALDYWGQGTSVTVSS
VL: B16 VL
B19: KCD064 (antibody, V domains shown)
VH: B17 VH with T31S, E46G, S56G, S77N, A100G, H101T, F102G
VL: B16 VL with K103E
B20: KCD056 (antibody, V domains shown)
VH: B16 VH with L20V, S31T, N32Y, V64E, R76K, A97V, T103A
VL: B16 VL with K103T
B21: KCD063 (antibody, V domains shown)
VH: B17 VH with T28I, T31S, S53N, S56G, F68L, S77N, A97V, F102Y
VL: B16 VL with A34T
B22: KCD057 (antibody, V domains shown)
VH: B18 VH with D10G, R31N, L39Q, F50Y, N57A, H60Y, R67Q, N76K, Y101F, Y106F
VL: B16 VL with Q90K
B23: KCD044 (antibody, V domains shown)
VH: EVQLQQSGAELVKPGASVRLSCTASGFNIKHTYMHWVSQRPERGLEWIGKIDPANGNTKYDPKFQGKATITADTSSNTVYLQLSSLTSEDTAVYYCLNAMEYWGQGTSVTVSS
VL: QSVLTQSPAIMSASPGEKVTMTCSANSSVSDMYWYQQRPGSSPRLLIYDTSNLASGVPVRFSGSGSGTSYSLTISRMEAEDAATYYCQQWSTYPWTFGGGTKLEIK
B24: KCD048 (antibody, V domains shown)
VH: EVQLQQSGADLVKPGASVKLSCTASGFNIKATYMHWVRQRPEKGLEWIGRIDPANGHTIYDPQFQGKATITSDTSSNTAYLQLNSLTSEDTAVYYCAEAMDYWGQGTSVTVSS
VL: B23 VL with S2I, M21L, N26T, D31Y, R38K, A82D, T92N, W95F
B25: KCD019 (antibody, V domains shown)
VH: QVQLQQSGAELARPGASVKMSCKASGYTFATYTIHWVKQRPGQGLEWIGYLNLRNDYTHYNQKFRDKAALTADKSSSTAYMQLSSLTSEDSAVYNCAFRLGNDRQGWYFDVWGAGTTVTVSS
VL: DIVMTQAHRFMSTSVGDRVIISCKASQDVGTAVAWYQQTPGQSPKILIYWTSTRHTGVPDRFTGSRSGTDFTLTISNVQSEDLADYFCQQYTTYPLTFGGGTKLEIK
B26: KCD014 (antibody, V domains shown)
VH: B17 VH with T31S, S53N, S56G, S57N, V64I, S77N, A100G, H101T, F102G
VL: EIVLTQSPTTMAASPGEKITITCSASSSISSNYLHWYQQKPGFSPKLLIYRTSNLASGVPARFSGSGSGTSYSLTIGTMEAEDVATYYCQQGSSIPLTFGAGTKLELK
B27: KCD132 (antibody, V domains shown)
VH: QVQLQQSGPELVKPGASVKISCKASGYSFTDYYINWVKQRPGQGLEWIGWIFPGSGSTYYNEKFKGKATLTVDKSSSTAYMLLSSLTSEDSAVYFCARTGYYSNLYAVDYWGQGTSVTVSS
VL: DIQMTQSPASLSVSVGETVTITCRASENIYSNLAWYQQKQGKSPQLLVYVATNLADGVPSRFSGSGSGTQYSLKINSLQSEDFGNYYCQHFWGTPYTFGGGTKLEMR
B28: KCD002 (antibody, V domains shown)
VH: EVKLVESEGGLVQPGSSMKLSCTASGFTFSDYYMAWVRQVPEKGLEWVGNINYDGSSTYYLDSLKSRFIISRDSAKNILYLQMSSLKSEDTATYFCARGEDFYLYAMDYWGQGTSVTVSS
VL: DIQMTQSPASLSASVGETVTITCRASENIHSYLAWYQQKQGKSPQLIVYNTKTLAEGVPSRFSGSGSGTQFSLKINSLQPEDFGSYYCQHHYGIPPTFGGGTKLEIK

biological target: T1, human Complement Factor D (CFD), purified from human serum (human, UniProt P00746 26-253); test: SPR MX96, mAbs amine-coupled, CFD injected
T1 construct: serum purified (CompTech A136); also called serum purified CFD; hCFD-Comptech
T1 sequence (P00746 26-253): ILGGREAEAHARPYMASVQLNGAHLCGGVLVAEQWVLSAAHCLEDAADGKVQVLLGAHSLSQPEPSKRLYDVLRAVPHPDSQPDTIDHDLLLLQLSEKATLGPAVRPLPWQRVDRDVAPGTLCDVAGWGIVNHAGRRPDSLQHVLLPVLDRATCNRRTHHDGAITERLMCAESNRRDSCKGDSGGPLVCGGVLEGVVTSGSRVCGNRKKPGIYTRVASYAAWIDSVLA

| Kd [nM] | Binder |
| --- | --- |
| 14 | B1 |
| 0.504 | B2 |
| 7.85 | B3 |
| 16.9 | B4 |
| 1.44 | B5 |
| 1.8 | B6 |
| 1.05 | B7 |
| 2.77 | B8 |
| 0.757 | B9 |
| 1.56 | B10 |
| 0.0535 | B11 |
| 3.56 | B12 |
| 1.58 | B13 |
| 4.37 | B14 |
| 3.78 | B15 |
| 77.5 | B16 |
| 24 | B17 |
| 9.91 | B18 |
| 20.3 | B19 |
| 60.2 | B20 |
| 33.3 | B21 |
| 2.71 | B22 |
| 2.62 | B23 |
| 1.87 | B24 |
| 7.24 | B25 |
| 21.8 | B26 |
| 2.61 | B27 |
| 0.132 | B28 |
